Residue numbers refer to the chain shown, from its start. Numbers in names are those of the source.
B1: 2-7B (antibody, V domains shown)
VH: EVQLVESDGGLVQPGRSLKLSCAASGFTFSDYYMAWVRQAPTKGLEWVATITYDVYSTYYRDSVKGRFTISRDNAKSTLYLQMDSLRSEDTATYYCARHGGDGYNSGNWFAYWGQGTLVTVSS
VL: DIVLTQSPALAVSLGQRATISCRASQSVSISRYNIMHWYQQKPGQQPKLLIYRASNLASGIPARFSGSGSGTDFTLTINPVQADDIATYYCQQSRESPPTFGGGTKLELKR
B2: h10A11 (IGKV3-20/IGHV3-15 T94R) (antibody, V domains shown)
VH: EVQLVESGGALVKPGGSLRLSCAASGFTFSTYALYWVRQAPGKGLEWVGRIRSKSNNYATYYADSVKDRFTISRDDSKNTLYLQMNSLKTEDTAVYYCTRARFYYSDYGYAMDYWGQGTLVTVSS
VL: EIVLTQSPGTLSLSPGERATLSCRSSKSLLHSNGNTYLYWYQQKPGQAPRLLIYRMSNLASGIPDRFSGSGSGTDFTLTISRLEPEDFAVYYCMQHLEYPLTFGQGTKVEIKR
B3: h10A11 (IGKV1-39/IGHV3-15 T94R) (antibody, V domains shown)
VH: B2 VH
VL: DIQMTQSPSSLSASVGDRVTITCRSSKSLLHSNGNTYLYWYQQKPGKAPKLLIYRMSNLASGVPSRFSGSGSGTDFTLTISSLQPEDFATYYCMQHLEYPLTFGQGTKLEIKR
B4: h10A11 (IGKV2-40/IGHV3-15 T94R) (antibody, V domains shown)
VH: B2 VH
VL: DIVMTQTPLSLPVTPGEPASISCRSSKSLLHSNGNTYLYWYLQKPGQSPQLLIYRMSNLASGVPDRFSGSGSGTDFTLKISRVEAEDVGVYYCMQHLEYPLTFGQGTKLEIKR
B5: h10A11 (IGKV1-16/IGHV3-15 T94R) (antibody, V domains shown)
VH: B2 VH
VL: B3 VL with Y41F, L51S
B6: h10A11 (IGKV1-39/IGHV3-73) (antibody, V domains shown)
VH: B2 VH with A10G, K13Q, R19K, T28A, S30N, P41S, L81A
VL: B3 VL
B7: h10A11 (IGKV2-40/IGHV3-73) (antibody, V domains shown)
VH: B2 VH with A10G, K13Q, R19K, T28A, S30N, P41S, L81A
VL: B4 VL
B8: h10A11 (IGKV2-28/IGHV3-73) (antibody, V domains shown)
VH: B2 VH with A10G, K13Q, R19K, T28A, S30N, P41S, L81A
VL: B4 VL with T7S, L109V
B9: humanized 10A11 antibody (light chain variable region: IGKV4-1 N53Q+G29R/heavy chain variable region: IGHV3-15 T94R) (antibody, V domains shown)
VH: B2 VH
VL: DIVMTQSPDSLAVSLGERATINCRSSKSLLHSNRNTYLYWYQQKPGQPPKLLIYRMSQLASGVPDRFSGSGSGTDFTLTISSLQAEDVAVYYCMQHLEYPLTFGQGTKLEIKR
B10: humanized 10A11 mutant (IGKV3-20 N53Q, N28K/IGHV3-15 T94R) (antibody, V domains shown)
VH: B2 VH
VL: B2 VL with N33K, N58Q
B11: humanized 10A11 mutant (IGKV3-20 N53Q, G29L/IGHV3-15 T94R) (antibody, V domains shown)
VH: B2 VH
VL: B2 VL with G34L, N58Q
B12: humanized 10A11 mutant (IGKV3-20 N53Q, G29R/IGHV3-15 T94R) (antibody, V domains shown)
VH: B2 VH
VL: B2 VL with G34R, N58Q

The binders below were run against T1, human CCR8 (human, UniProt P51685 1-355) (assay: cell-based or functional assay).
B1 was tested, and the “IC50 (nM), Ca2+ influx by 200 nM hCCL1” value was 0.23 nM.

Target: T1, human CCR8
Experiment: cell-based or functional assay
Remark: another data set of the same source
With B2 the “IC50 (nM), Ca2+ influx by 200 nM hCCL1” value was 0.16 nM. In the case of B3, the “IC50 (nM), Ca2+ influx by 200 nM hCCL1” value is reported as 0.2 nM. With B4 the “IC50 (nM), Ca2+ influx by 200 nM hCCL1” value was 0.3 nM. With B5 the “IC50 (nM), Ca2+ influx by 200 nM hCCL1” value was 0.7 nM. In the case of B6, the “IC50 (nM), Ca2+ influx by 200 nM hCCL1” value is reported as 0.16 nM. For B7, the “IC50 (nM), Ca2+ influx by 200 nM hCCL1” value was 0.21 nM. For B8, the “IC50 (nM), Ca2+ influx by 200 nM hCCL1” value was 0.2 nM.

Target: T1, human CCR8
Experiment: cell-based or functional assay
Remark: another data set of the same source
In the case of B9, the “IC50 (nM), Ca2+ influx by 200 nM hCCL1” value is reported as 0.12 nM. B10 was tested, and the “IC50 (nM), Ca2+ influx by 200 nM hCCL1” value was 0.29 nM. With B11 the “IC50 (nM), Ca2+ influx by 200 nM hCCL1” value was 0.21 nM. For B12, the “IC50 (nM), Ca2+ influx by 200 nM hCCL1” value was 0.19 nM.

— US20230256092A1 (SHIONOGI, published 2023)
